Data published in patent US12551573B2, “Compositions and methods for the targeting of PCSK9” (Scribe Therapeutics Inc., priority 2022, dated 2026).

These molecules were tested on HBEGF locus. Details: high-throughput screen of dXR repression of the HBEGF gene; abundance of each domain in the library before vs after diphtheria toxin selection; listed domains met p-value <0.01 and log2(fold change) >2.
Type: cell-based, human

Molecule	Log2 (fold change)
DOMAIN_22919 (protein, listed as Colobus angolensis) KPGTVSFADVAVYFSREEWGYLRPAQRALYRDVMRETYCHLGALGVGGSKPALISWVEEEAELWDPAARDPEVTKGLTETD	2.8609
DOMAIN_22586 (protein, Nomascus leucogenys) FQASVSFQDVTVEFSQEEWQHLGPVERTLYRDVMLENYSHLVSVGYCFTKPELIFTLEQGEDPWLLEKEKGFLSRNSPEDS	2.1811
DOMAIN_24838 (protein, Pteropus alecto) FQASVSFKDVTVELTQEEWQQMGPLQRTLYRDVMLENYNNLVSVGSCIYKPELIFKLEQGEEPWLLEEEFSNQSYQVLEHY	2.3323
DOMAIN_25973 (protein, listed as Geotrypetes seraphini) ARAPVSFEEVAVYFSPEEWQTLQGWQKEMYRGVMRENYEIMLSLGYQFSKPEILLMMERGEEPCVEDCQRRIPVTFREKHL	2.7804
DOMAIN_24903 (protein, listed as Ailuropoda melanoleuca) EMEPHSHAVPCQPSMSFKDVAVTFTQEEWGQLNLAQRRLYRNVTLETWSHLVSLGLLLSKPDVISWLEQGQDPWRAEQGPP	3.0377
DOMAIN_23018 (protein, listed as Colobus angolensis) AQMLVTFKDVAVTFTQEEWRQLDLTQRTLYREVMLETCGLLVSLGHRVPKPELVHLLEHGQELWTVKTGLSQPTCAGDRTQ	3.4177
DOMAIN_25682 (protein, listed as Rhinopithecus bieti) PRLPLTFEDVAIYFSEQEWQDLEAWQKELYKHVMRSNYETLVSLDDGLPKPELISWIEHGGEPFRNWRESQKSRNIICSSS	2.5621
DOMAIN_23093 (protein, listed as Propithecus coquereli) ESLTLEDVAVEFTWEEWQLLGPAQKDLYWDVMLENYNHLVSLGYQASKPDALSKLAQGEEPCVIEGKIQNRNCPGIRKADS	3.2165
DOMAIN_23281 (protein, listed as Colobus angolensis) CWGLLSFKDISMEFTWDEWQLLDSTQKYLYRDVILENYHNLISVGYHGTKPDLIFKLEQGEDPWIINAKISRQSRPDGWEE	2.5048
DOMAIN_23856 (protein, listed as Erinaceus europaeus) SLGMVSFDDVMVTFSLEEWQLLSTSQRTLYRTVMLDTYSSLAALGHCAVKPGVIIKLEQGAEPWMGAQAPPRSLSDPCGPS	3.1072
DOMAIN_22917 (protein, listed as Cervus elaphus) MAFEDVAVHFSQEEWGLLDTAQRSLYRRVMLENFALLASLGLSVSRPHVVTQLERGEEPWVLSGVDVTLPRDAQRRPHRGS	3.8061
DOMAIN_25686 (protein, listed as Panthera pardus) PRVSLTFEDVAVLFTRDEWRKLGPSERNLYQDVMLENYSNLVSLGLLFSKPKVISLLQQGEDPWKVEKESPGGPSLGYKSS	2.8635
DOMAIN_23679 (protein, listed as Tupaia chinensis) MAFEDVAVYFSREEWELLDTAQRALYRHVMLENFALVASLGFSPSRPCVVIQLESGKEPWLHSGMDTTMSRHAHKRPSSGS	3.7951
DOMAIN_25654 (protein, Pteropus alecto) LWLPLTFEDIAIYFSEQEWQNLEAWQKDLYRNVMRANYEILVSLDDGLPKPELISHIEQGKELFWNLGETQKSGNIICSSA	2.2996
DOMAIN_24204 (protein, listed as Propithecus coquereli) SLGSVSFKDVTVDFSREEWQQLDLAQKSLYRDVTLENYFNLISVGCQVPKPEVIFNLEQGGELCVLDGGLSCQNCSDGDIG	3.0779
DOMAIN_25235 (protein, listed as Oryctolagus cuniculus) LPGLMAFEDVAVYFSQEEWGLLDAVQRALYRHVMLENFALVASLGLSASPPHVVIQLQRGEEPWVPSGLDMTSARNGHRRP	3.6965
DOMAIN_23113 (protein, listed as Camelus ferus) GSVCEVSVSFEDVTVDFSREEWQHLDPAQRRLYWDVTLENYSHLCSVGYQVPKPEVIFKLEQGEGPWTLEEETPHQSCSGA	3.4612
DOMAIN_23331 (protein, listed as Carlito syrichta) LQELLSFEDLSVDFTQKEWQLLNPYQKNLYKDVMLENYSSLVSLGYEVIKPDVIFKLEQGEEPWIRDAEMPSSPSLEVWQV	2.8995
DOMAIN_25565 (protein, listed as Muntiacus reevesi) LPLTFEDVAVYFSEQEWQNLEAWQKELYKQVMRANYEILLSLDNGLPKPELISWIEQGKELFKKWGESQQSRSIICSSADL	2.6133
DOMAIN_24446 (protein, listed as Propithecus coquereli) SQGLVSFKDVAVDFTQDEWQQLDPAQRTLYRDVMLENYSHLVSMGYPVSKPDVISKLEQGEDPWIIKRDISNWIYPDENQA	3.6312
DOMAIN_22778 (protein, listed as Saimiri boliviensis) SQGSVSFKDVTVDFTQEEWQQLDPAQKALYRDVMLENYCHFIAVGFHMTKPDMIRKLEQGEELWTQRIFPSYSYLEEDGKT	3.1251
DOMAIN_25671 (protein, listed as Muntiacus reevesi) GLLSFEDVALYFTREEWDTLDWAQKALYRDVMLDNYRHIVSLGFPFPKPEVICQLEQWEEPWTLDLPRAGTRKASGSACPD	3.5244
DOMAIN_23454 (protein, listed as Carlito syrichta) GKALLSFEDVAMYFTREEWNHLDWAQKDLYRDVMLENYMNMVLLGFQFPKPEVICQLENWDEPWILDLPRAGNRKASSSAC	3.0632
DOMAIN_24615 (protein, listed as Colobus angolensis) TEGLVMFEDVAVYFSREEWGLLNVTQKGLYQDVMLENFALVSSLGLAPLRSPVFSQLENDEQLWVPSWVDETPVSRAEARR	2.4075

Same assay, conditions: high-throughput screen of dXR repression of the HBEGF gene; change in abundance of each domain in the library before and after diphtheria toxin selection

Molecule	Log2 (fold change)
DOMAIN_731 (protein, listed as Pan paniscus) MAGEAEAQLDPSLQGLVMFEDVTVYFSREEWGLLNVTQKGLYRDVMLENFALVSSLGLAPSRSPVFTQLEDDEQSWVPSWV	2.1318
DOMAIN_749 (protein, listed as Pan paniscus) MGPQGARRQAFLAFGDVTVDFTQKEWRLLSPAQRALYREVTLENYSHLVSLGILHSKPELIRRLEQGEAPWGEERRRRPGP	3.1162
DOMAIN_938 (protein, listed as Pan paniscus) MPANEDAPQPGEHGSACEVSVSFEDVTVDFSREEWQQLDSTQRRLYQDVMLENYSHLLSVGFEVPKPEVIFKLEQGEGPWT	2.2926
